In patent publication US20140017234A1:
Values joined by “and” are separate entries in the source; they are usually repeats but may differ in a detail not shown here. Equal values may be shown once. Read-outs that look alike come from different tables or passages of the source.

Assays:
[1] = target: clade A/E 93TH057-derived gp120 core (HIV-1 clade A/E strain 93TH057)
[2] = target: HIV-1 YU-2 Env (gp120) mutant N279K (HIV-1 strain YU-2) (UniProt P35961)
[3] = target: HIV-1 YU-2 Env (gp120) mutant N280D (HIV-1 strain YU-2) (UniProt P35961)
[4] = target: HIV-1 YU-2 Env (gp120) mutant A281T (HIV-1 strain YU-2) (UniProt P35961)
[5] = target: HIV-1 YU-2 Env (gp120) mutant N279K (HIV-1 strain YU-2) (UniProt P35961); remark: listed apart in the source
[6] = target: HIV-1 YU-2 Env (gp120) mutant N280D (HIV-1 strain YU-2) (UniProt P35961); remark: listed apart in the source
[7] = target: HIV-1 YU-2 Env (gp120) mutant N280Y (HIV-1 strain YU-2) (UniProt P35961)
[8] = target: HIV-1 YU-2 Env (gp120) mutant N276S (HIV-1 strain YU-2) (UniProt P35961)
[9] = target: HIV-1 YU-2 Env (gp120) mutant T278A (HIV-1 strain YU-2) (UniProt P35961)
[10] = target: HIV-1 YU-2 Env (gp120) mutant A281S (HIV-1 strain YU-2) (UniProt P35961)
[11] = target: HIV-1 YU-2 Env (gp120) mutant A281T (HIV-1 strain YU-2) (UniProt P35961); assay: cell-based or functional assay
[12] = target: HIV-1 YU-2 Env (gp120) mutant N280Y (HIV-1 strain YU-2) (UniProt P35961); remark: listed apart in the source

Substance | Kd [1] | IC50 (pseudovirus neutralization, TZM-bl cells) [2] | IC50 (pseudovirus neutralization, TZM-bl cells) [3] | IC50 (pseudovirus neutralization, TZM-bl cells), first of the two values given [4] | IC50 (pseudovirus neutralization, TZM-bl cells), second of the two values given [4] | IC50 (pseudovirus neutralization, TZM-bl cells) [5] | IC50 (pseudovirus neutralization, TZM-bl cells) (YU-2^N279H (HIV-1)) | IC50 (pseudovirus neutralization) [8] | IC50 (pseudovirus neutralization) [9] | other results
45-46m2 Fab (NIH45-46 with G54W in the heavy chain and S28Y in the light chain) | 0.051 µM and 0.057 µM |  |  |  |  |  |  |  |  | 
45-46m25 IgG (45-46m2 + HC W47I) (antibody) |  | 2.59 µg/mL | 0.19 µg/mL | 0.1 µg/mL | > 50 µg/mL |  |  |  |  | 
NIH45-46^G54W IgG (antibody) |  |  |  | 0.1 µg/mL | > 50 µg/mL | > 50 µg/mL | > 50 µg/mL | 0.004 µg/mL | 0.001 µg/mL | IC50 (pseudovirus neutralization, TZM-bl cells) [6]: > 50 µg/mL; IC50 (pseudovirus neutralization, TZM-bl cells) [7]: > 50 µg/mL; IC50 (pseudovirus neutralization, TZM-bl cells) (YU-2^R456W (HIV-1)): 5.67 µg/mL
NIH45-46^G54W Fab | 0.062 µM and 0.072 µM |  |  |  |  |  |  |  |  | 
45-46m7 IgG (45-46m2 + HC W47V) (antibody) |  | 2.41 µg/mL | 0.139 µg/mL | 0.1 µg/mL | > 50 µg/mL | 2.41 µg/mL | 0.245 µg/mL | 0.003 µg/mL | 0.001 µg/mL | IC50 (read off the curve) [10]: 0.01 µg/mL; plateau of the in vitro neutralization curve [11]: 50%
45-46m2 IgG (NIH45-46 with G54W in the heavy chain and S28Y in the light chain) (antibody) |  |  | 0.435 µg/mL | 0.1 µg/mL | > 50 µg/mL |  | 0.452 µg/mL | 0.006 µg/mL | 0.001 µg/mL | IC50 (pseudovirus neutralization, TZM-bl cells) [12]: 2.23 µg/mL; IC50 (pseudovirus neutralization, TZM-bl cells) [7]: 2.23 µg/mL; IC50 (read off the curve) [10]: 0.01 µg/mL; plateau of the in vitro neutralization curve [11]: 50%
45-46m28 IgG (45-46m2 + HC W47T) (antibody) |  | 0.652 µg/mL |  | 0.1 µg/mL | > 50 µg/mL | 0.65 µg/mL |  |  |  | 
NIH45-46 Fab | 0.221 µM and 0.178 µM |  |  |  |  |  |  |  |  | 
